In patent US20260217793A1 (Chugai, published 2026):

T1: FcγRIIa type H extracellular domain with C-terminal His tag (human, UniProt P12318 34-217)
T1 sequence (looked up): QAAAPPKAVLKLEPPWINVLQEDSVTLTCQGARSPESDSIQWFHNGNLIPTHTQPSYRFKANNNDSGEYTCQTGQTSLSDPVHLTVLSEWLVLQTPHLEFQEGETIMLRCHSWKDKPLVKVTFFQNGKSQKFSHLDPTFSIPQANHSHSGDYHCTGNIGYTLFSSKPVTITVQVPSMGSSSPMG

T2: human FcγRIIa type R (Arg131) extracellular domain with C-terminal His tag (human, UniProt P12318 34-217)
T2 sequence (looked up): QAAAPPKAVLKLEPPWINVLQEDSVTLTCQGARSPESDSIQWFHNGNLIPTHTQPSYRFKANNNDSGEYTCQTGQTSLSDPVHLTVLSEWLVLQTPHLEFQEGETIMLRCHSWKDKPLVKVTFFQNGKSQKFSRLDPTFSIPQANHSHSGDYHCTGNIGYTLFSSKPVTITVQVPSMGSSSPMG

T3: human FcγRIIb extracellular domain with C-terminal His tag (human, UniProt P31994 43-217)
T3 sequence (looked up): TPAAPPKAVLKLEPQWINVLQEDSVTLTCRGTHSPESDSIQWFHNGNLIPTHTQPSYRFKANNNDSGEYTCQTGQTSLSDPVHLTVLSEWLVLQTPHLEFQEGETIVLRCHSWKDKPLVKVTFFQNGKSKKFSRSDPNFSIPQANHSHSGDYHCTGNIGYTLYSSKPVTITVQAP

T4: human FcγRIIa type H (His131) extracellular domain with C-terminal His tag (human, UniProt P12318 34-217)
T4 sequence (looked up): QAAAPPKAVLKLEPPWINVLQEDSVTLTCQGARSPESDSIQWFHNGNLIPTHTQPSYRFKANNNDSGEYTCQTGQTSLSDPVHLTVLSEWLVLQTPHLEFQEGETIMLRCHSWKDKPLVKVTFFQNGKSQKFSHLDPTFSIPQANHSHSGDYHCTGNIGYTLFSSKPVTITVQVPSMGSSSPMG

T5: FcγRIIa type R extracellular domain with C-terminal His tag (human, UniProt P12318 34-217)
T5 sequence (looked up): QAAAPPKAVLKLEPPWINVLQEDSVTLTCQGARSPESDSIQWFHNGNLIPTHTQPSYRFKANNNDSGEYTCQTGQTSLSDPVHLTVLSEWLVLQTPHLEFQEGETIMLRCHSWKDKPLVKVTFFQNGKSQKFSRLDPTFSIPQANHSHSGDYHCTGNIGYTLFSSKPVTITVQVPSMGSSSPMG

T6: FcγRIIb extracellular domain with C-terminal His tag (human, UniProt P31994 43-217)
T6 sequence (looked up): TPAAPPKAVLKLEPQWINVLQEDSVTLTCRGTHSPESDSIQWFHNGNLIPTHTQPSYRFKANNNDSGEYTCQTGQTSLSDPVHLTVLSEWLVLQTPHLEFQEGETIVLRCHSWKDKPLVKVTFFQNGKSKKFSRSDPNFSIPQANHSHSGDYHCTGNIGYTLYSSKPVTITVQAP


Experiments:
[1] = molecular target: T1, FcγRIIa type H extracellular domain …; experiment: SPR
[2] = molecular target: FcγRIIIa type V extracellular domain with C-terminal His tag (human, UniProt P08637 17-208); experiment: SPR
[3] = molecular target: T2, human FcγRIIa type R (Arg131) …; experiment: SPR
[4] = molecular target: T3, human FcγRIIb extracellular domain with …; experiment: SPR
[5] = molecular target: T4, human FcγRIIa type H (His131) …; experiment: SPR
[6] = molecular target: human FcγRIIIa type V (Val158) extracellular domain with C-terminal His tag (human, UniProt P08637 17-208); experiment: SPR
[7] = molecular target: T5, FcγRIIa type R extracellular domain …; experiment: ratio of SPR KDs vs IL6R-B3/IL6R-L
[8] = molecular target: T6, FcγRIIb extracellular domain with …; experiment: ratio of SPR KDs vs IL6R-B3/IL6R-L
[9] = molecular target: T6, FcγRIIb extracellular domain with …; experiment: ratio of SPR KDs, FcγRIIaH over FcγRIIb, same variant
[10] = molecular target: T6, FcγRIIb extracellular domain with …; experiment: ratio of SPR KDs, FcγRIIaR over FcγRIIb, same variant

FcγRIIIa type V extracellular domain with C-terminal His tag, sequence (P08637 17-208 F176V): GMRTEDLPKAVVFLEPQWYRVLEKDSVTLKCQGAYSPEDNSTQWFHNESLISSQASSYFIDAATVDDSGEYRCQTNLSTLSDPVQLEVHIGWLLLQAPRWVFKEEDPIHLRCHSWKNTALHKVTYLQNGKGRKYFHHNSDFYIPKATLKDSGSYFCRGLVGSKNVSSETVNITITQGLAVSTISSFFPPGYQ
human FcγRIIIa type V (Val158) extracellular domain with C-terminal His tag, sequence (P08637 17-208 F176V): as above

Row | Kd [1] [µM] | Kd [2] [µM] | KD (IIaR) of parent polypeptide/KD (IIaR) of altered polypeptide [7] | KD (IIb) of parent polypeptide/KD (IIb) of altered polypeptide [8] | KD (IIaH)/KD (IIb) [9] | KD (IIaR)/KD (IIb) [10] | Binder | also measured
1 | 9.7 | 39 | – | – | – | – | IL6R-BP230/IL6R-L (antibody, human IgG1, kappa) heavy: QVQLQESGPGLVKPSETLSLTCAVSGHSISHDHAWSWVRQPPGEGLEWIGFISYSGITNYNPSLQGRVTISRDNSKNTLYLQMNSLRAEDTAVYYCARSLARTTAMDYWGEGTLVTVSSASTKGPSVFPLAPSSKSTSGGTAALGCLVKDYFPEPVTVSWNSGALTSGVHTFPAVLQSSGLYSLSSVVTVPSSSLGTQTYICNVNHKPSNTKVDKKVEPKSCDKTHTCPPCPAPDLLGDDSVFLFPPKPKDTLMISRTPEVTCVVVDVSDEDGEVKFNWYVDGVEVHNAKTKPREEQDNSTYRVVSVLTVLHQDWLNGKEYKCKVSNKALPRPIEKTISKAKGQPREPQVYTLPPSRDELTKNQVSLTCLVKGFYPSDIAVEWESNGQPENNYKTTPPVLDSDGSFFLYSKLTVDKSRWQQGNVFSCSVMHEALHNHYTQESLSLSP light: not shown | –
2 | – | – | – | – | – | – | IL6R-BP549/IL6R-L (antibody, human IgG1, kappa) heavy: QVQLQESGPGLVKPSETLSLTCAVSGHSISHDHAWSWVRQPPGEGLEWIGFISYSGITNYNPSLQGRVTISRDNSKNTLYLQMNSLRAEDTAVYYCARSLARTTAMDYWGEGTLVTVSSASTKGPSVFPLAPSSKSTSGGTAALGCLVKDYFPEPVTVSWNSGALTSGVHTFPAVLQSSGLYSLSSVVTVPSSSLGTQTYICNVNHKPSNTKVDKKVEPKSCDKTHTCPPCPAPELLGDDSVFLFPPKPKDTLMISRTPEVTCVVVDVGEEDGEVKFNWYVDGVEVHNAKTKPREEQYNSTYRVVSVLTVLHQDWLNGKEYKCKVSNKALPRPIEKTISKAKGQPREPQVYTLPPSRDELTKNQVSLTCLVKGFYPSDIAVEWESNGQPENNYKTTPPVLDSDGSFFLYSKLTVDKSRWQQGNVFSCSVMHEALHNHYTQESLSLSP light: not shown | KD (IIaR) of parent polypeptide/KD (IIaR) of altered polypeptide [3]: 1.9; KD (IIb) of parent polypeptide/KD (IIb) of altered polypeptide [4]: 196; Kd [5]: 11 µM; Kd [6]: 24 µM
3 | – | – | 1.4 | 67.8 | 241 | 17.1 | IL6R-BP484/IL6R-L (antibody, human IgG1, kappa) heavy: QVQLQESGPGLVKPSETLSLTCAVSGHSISHDHAWSWVRQPPGEGLEWIGFISYSGITNYNPSLQGRVTISRDNSKNTLYLQMNSLRAEDTAVYYCARSLARTTAMDYWGEGTLVTVSSASTKGPSVFPLAPSSKSTSGGTAALGCLVKDYFPEPVTVSWNSGALTSGVHTFPAVLQSSGLYSLSSVVTVPSSSLGTQTYICNVNHKPSNTKVDKKVEPKSCDKTHTCPPCPAPDLLGDDSVFLFPPKPKDTLMISRTPEVTCVVVDVAEDDGEVKFNWYVDGVEVHNAKTKPREEQYNSTYRVVSVLTVLHQDWLNGKEYKCKVSNKALPAPIEKTISKAKGQPREPQVYTLPPSRDELTKNQVSLTCLVKGFYPSDIAVEWESNGQPENNYKTTPPVLDSDGSFFLYSKLTVDKSRWQQGNVFSCSVMHEALHNHYTQESLSLSP light: not shown | –
4 | 7.5 | 35 | – | – | – | – | IL6R-BP547/IL6R-L (antibody, human IgG1, kappa) heavy: QVQLQESGPGLVKPSETLSLTCAVSGHSISHDHAWSWVRQPPGEGLEWIGFISYSGITNYNPSLQGRVTISRDNSKNTLYLQMNSLRAEDTAVYYCARSLARTTAMDYWGEGTLVTVSSASTKGPSVFPLAPSSKSTSGGTAALGCLVKDYFPEPVTVSWNSGALTSGVHTFPAVLQSSGLYSLSSVVTVPSSSLGTQTYICNVNHKPSNTKVDKKVEPKSCDKTHTCPPCPAPDLLGDDSVFLFPPKPKDTLMISRTPEVTCVVVDVSDEDGEVKFNWYVDGVEVHNAKTKPREEQDNSTYRVVSVLTVLHQDWLNGKEYKCKVSNKALPRPIEKTISKAKGQPREPQVYTLPPSRDELTKNQVSLTCLVKGFYPSDIAVEWESNGQPENNYKTTPPVLDSDGSFFLYSRLTVDKSRWQQGNVFSCSVMHEALHNHYTQESLSLSP light: not shown | –
5 | – | – | 2.8 | 160 | 350 | 20.5 | IL6R-BP481/IL6R-L (antibody, human IgG1, kappa) heavy: QVQLQESGPGLVKPSETLSLTCAVSGHSISHDHAWSWVRQPPGEGLEWIGFISYSGITNYNPSLQGRVTISRDNSKNTLYLQMNSLRAEDTAVYYCARSLARTTAMDYWGEGTLVTVSSASTKGPSVFPLAPSSKSTSGGTAALGCLVKDYFPEPVTVSWNSGALTSGVHTFPAVLQSSGLYSLSSVVTVPSSSLGTQTYICNVNHKPSNTKVDKKVEPKSCDKTHTCPPCPAPDLLGDDSVFLFPPKPKDTLMISRTPEVTCVVIDVAEEDGEVKFNWYVDGVEVHNAKTKPREEQYNSTYRVVSVLTVLHQDWLNGKEYKCKVSNKALPAPIEKTISKAKGQPREPQVYTLPPSRDELTKNQVSLTCLVKGFYPSDIAVEWESNGQPENNYKTTPPVLDSDGSFFLYSKLTVDKSRWQQGNVFSCSVMHEALHNHYTQESLSLSP light: not shown | –
6 | 9.7 | 43 | – | – | – | – | IL6R-BP542/IL6R-L (antibody, human IgG1, kappa) heavy: QVQLQESGPGLVKPSETLSLTCAVSGHSISHDHAWSWVRQPPGEGLEWIGFISYSGITNYNPSLQGRVTISRDNSKNTLYLQMNSLRAEDTAVYYCARSLARTTAMDYWGEGTLVTVSSASTKGPSVFPLAPSSKSTSGGTAALGCLVKDYFPEPVTVSWNSGALTSGVHTFPAVLQSSGLYSLSSVVTVPSSSLGTQTYICNVNHKPSNTKVDKKVEPKSCDKTHTCPPCPAPDLLGDDSVFLFPPKPKDTLMISRTPEVTCVVVDVSDEDGEVKFNWYVDGVEVHNAKTKPREEQFNSTYRVVSVLTVLHQDWLNGKEYKCKVSNKALPRPIEKTISKAKGQPREPQVYTLPPSRDELTKNQVSLTCLVKGFYPSDIAVEWESNGQPENNYKTTPPVLDSDGSFFLYSKLTVDKSRWQQGNVFSCSVMHEALHNHYTQESLSLSP light: not shown | –
7 | – | – | – | – | – | – | IL6R-BP557/IL6R-L (antibody, human IgG1, kappa) heavy: QVQLQESGPGLVKPSETLSLTCAVSGHSISHDHAWSWVRQPPGEGLEWIGFISYSGITNYNPSLQGRVTISRDNSKNTLYLQMNSLRAEDTAVYYCARSLARTTAMDYWGEGTLVTVSSASTKGPSVFPLAPSSKSTSGGTAALGCLVKDYFPEPVTVSWNSGALTSGVHTFPAVLQSSGLYSLSSVVTVPSSSLGTQTYICNVNHKPSNTKVDKKVEPKSCDKTHTCPPCPAPELLGDDSVFLFPPKPKDTLMISRTPEVTCVVVDVGDEDGEVKFNWYVDGVEVHNAKTKPREEQDNSTYRVVSVLTVLHQDWLNGKEYKCKVSNKALPRPIEKTISKAKGQPREPQVYTLPPSRDELTKNQVSLTCLVKGFYPSDIAVEWESNGQPENNYKTTPPVLDSDGSFFLYSKLTVDKSRWQQGNVFSCSVMHEALHNHYTQESLSLSP light: not shown | Kd [5]: 15 µM; Kd [6]: 29 µM
8 | 9.1 | 45 | – | – | – | – | IL6R-BP545/IL6R-L (antibody, human IgG1, kappa) heavy: QVQLQESGPGLVKPSETLSLTCAVSGHSISHDHAWSWVRQPPGEGLEWIGFISYSGITNYNPSLQGRVTISRDNSKNTLYLQMNSLRAEDTAVYYCARSLARTTAMDYWGEGTLVTVSSASTKGPSVFPLAPSSKSTSGGTAALGCLVKDYFPEPVTVSWNSGALTSGVHTFPAVLQSSGLYSLSSVVTVPSSSLGTQTYICNVNHKPSNTKVDKKVEPKSCDKTHTCPPCPAPDLLGDDSVFLFPPKPKDTLMISRTPEVTCVVVDVSDEDGEVKFNWYVDGVEVHNAKTKPREEQDNSTYRVVSVLTVLHQDWLNGKEYKCKVSNKALPRPIEKTISKAKGQPREPQVYTLPPSREELTKNQVSLTCLVKGFYPSDIAVEWESNGQPENNYKTTPPVLDSDGSFFLYSKLTVDKSRWQQGNVFSCSVMHEALHNHYTQESLSLSP light: not shown | –
9 | – | – | 22.3 | 2120 | 685 | 33.8 | IL6R-BP499/IL6R-L (antibody, human IgG1, kappa) heavy: QVQLQESGPGLVKPSETLSLTCAVSGHSISHDHAWSWVRQPPGEGLEWIGFISYSGITNYNPSLQGRVTISRDNSKNTLYLQMNSLRAEDTAVYYCARSLARTTAMDYWGEGTLVTVSSASTKGPSVFPLAPSSKSTSGGTAALGCLVKDYFPEPVTVSWNSGALTSGVHTFPAVLQSSGLYSLSSVVTVPSSSLGTQTYICNVNHKPSNTKVDKKVEPKSCDKTHTCPPCPAPDLLGDDSVFLFPPKPKDTLMISRTPEVTCVVIDVAEEDGEVKFNWYVDGVEVHNAKTKPREEQDNSTYRVVSVLTVLHQDWLNGKEYKCKVSNKALPRPIEKTISKAKGQPREPQVYTLPPSRDELTKNQVSLTCLVKGFYPSDIAVEWESNGQPENNYKTTPLVLDSDGSFFLYSKLTVDKSRWQQGNVFSCSVMHEALHNHYTQESLSLSP light: not shown | –
